# From patent US20180194839A1 (Novartis, published 2018)
# Numbering of substitutions follows the chain as printed. Names may count otherwise.
# T1: recombinant mouse IL-2 (R&D Systems 402-ML-020/CF) (mouse, UniProt P04351 21-169)
# T1 construct: also called mIL-2
# T1 sequence (looked up): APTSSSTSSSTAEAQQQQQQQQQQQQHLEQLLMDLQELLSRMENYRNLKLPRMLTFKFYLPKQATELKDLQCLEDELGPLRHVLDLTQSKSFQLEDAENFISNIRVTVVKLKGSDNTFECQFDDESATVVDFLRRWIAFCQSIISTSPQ
# T2: recombinant mouse IFN-γ (R&D Systems Cat#485-MT) (mouse, UniProt P01580 23-155)
# T2 construct: also called mIFN-γ
# T2 sequence (looked up): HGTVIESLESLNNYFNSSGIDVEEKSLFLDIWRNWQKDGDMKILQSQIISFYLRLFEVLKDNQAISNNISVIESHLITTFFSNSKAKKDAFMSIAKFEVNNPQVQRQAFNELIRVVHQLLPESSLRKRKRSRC
# T3: recombinant mouse IL-17A/F (R&D Systems Cat#5390-IL) (mouse, UniProt Q62386 26-158; Q7TNI7 29-161, limits assumed)
# T3 construct: bought heterodimer; also called mIL-17A/F; rmIL-17A/F
# T3 sequence (looked up) 1: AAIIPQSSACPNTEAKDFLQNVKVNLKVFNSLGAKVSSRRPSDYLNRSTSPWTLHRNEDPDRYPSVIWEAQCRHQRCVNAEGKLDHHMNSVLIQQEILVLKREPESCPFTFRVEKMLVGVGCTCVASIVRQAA
# T3 sequence (looked up) 2: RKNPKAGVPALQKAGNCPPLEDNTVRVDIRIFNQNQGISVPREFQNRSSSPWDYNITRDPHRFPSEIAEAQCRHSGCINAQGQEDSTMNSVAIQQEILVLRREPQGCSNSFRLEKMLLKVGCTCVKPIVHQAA
# T4: recombinant mouse IL-6 (R&D Systems Cat#406-ML-010/CF) (mouse, UniProt P08505 25-211)
# T4 construct: coated at 0.5 µg/ml; also called mIL-6
# T4 sequence (looked up): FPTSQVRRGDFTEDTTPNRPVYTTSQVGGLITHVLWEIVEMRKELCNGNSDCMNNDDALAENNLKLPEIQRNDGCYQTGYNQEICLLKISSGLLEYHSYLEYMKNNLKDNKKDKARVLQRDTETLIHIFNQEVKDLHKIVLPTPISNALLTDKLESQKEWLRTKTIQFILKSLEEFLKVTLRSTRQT
# T5: recombinant mouse IL-23 (R&D Systems Cat#1887-ML) (mouse, UniProt Q9EQ14 22-196; P43432 23-335)
# T5 construct: also called mIL-23
# T5 sequence (looked up) 1: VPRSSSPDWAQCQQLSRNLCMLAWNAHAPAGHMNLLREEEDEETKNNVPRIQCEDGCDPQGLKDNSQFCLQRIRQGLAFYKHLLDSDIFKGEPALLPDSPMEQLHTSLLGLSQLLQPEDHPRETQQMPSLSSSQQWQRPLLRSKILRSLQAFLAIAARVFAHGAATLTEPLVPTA
# T5 sequence (looked up) 2: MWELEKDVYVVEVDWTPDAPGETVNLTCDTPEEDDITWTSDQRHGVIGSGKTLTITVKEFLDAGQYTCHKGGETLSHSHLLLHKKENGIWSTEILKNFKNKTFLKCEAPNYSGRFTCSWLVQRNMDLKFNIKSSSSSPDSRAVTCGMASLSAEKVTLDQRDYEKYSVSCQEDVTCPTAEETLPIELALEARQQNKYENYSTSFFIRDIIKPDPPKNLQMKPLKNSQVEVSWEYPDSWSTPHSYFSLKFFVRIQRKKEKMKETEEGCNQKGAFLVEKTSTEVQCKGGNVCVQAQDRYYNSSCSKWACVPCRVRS
# T6: recombinant human IL-4 (R&D Systems Cat#204-IL/CF) (human, UniProt P05112 25-153)
# T6 construct: also called huIL-4
# T6 sequence (looked up): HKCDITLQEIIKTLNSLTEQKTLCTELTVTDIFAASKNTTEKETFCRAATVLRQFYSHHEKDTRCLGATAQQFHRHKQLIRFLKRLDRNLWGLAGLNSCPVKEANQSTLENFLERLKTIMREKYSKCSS
# T7: recombinant human IL-8 (R&D Systems Cat#208-IL-010/CF) (human, UniProt P10145 28-99)
# T7 construct: also called huIL-8
# T7 sequence (looked up): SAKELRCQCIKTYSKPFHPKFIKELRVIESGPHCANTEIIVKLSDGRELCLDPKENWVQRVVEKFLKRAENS
# T8: recombinant human IL-20 (Novartis) (human, UniProt Q9NYY1 25-176, limits assumed)
# T8 construct: also called huIL-20
# T8 sequence (looked up): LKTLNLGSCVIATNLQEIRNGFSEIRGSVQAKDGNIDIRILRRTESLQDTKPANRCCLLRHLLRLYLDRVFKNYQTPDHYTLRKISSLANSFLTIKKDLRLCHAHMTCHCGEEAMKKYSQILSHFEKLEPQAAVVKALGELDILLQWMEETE
# T9: recombinant rat TNFα (R&D Systems Cat#510-RT/CF) (rat, UniProt P16599 80-235)
# T9 sequence (looked up): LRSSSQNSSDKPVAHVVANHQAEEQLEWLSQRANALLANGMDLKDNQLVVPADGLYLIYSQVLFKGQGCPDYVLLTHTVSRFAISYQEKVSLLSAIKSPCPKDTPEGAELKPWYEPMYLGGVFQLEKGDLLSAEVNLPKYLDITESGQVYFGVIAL
# B1: XAB4 (antibody, human IgG1, kappa, V domains shown)
# VH: EVQLVESGGDLVQPGGSLRLSCAASGFTFSSYWMSWVRQAPGKGLEWVANIKQDGSEKYYVDSVKGRFTISRDNAKNSLYLQMNSLRAEDTAVYYCARDRGSLYYWGQGTLVTVSS
# VL: AIQLTQSPSSLSASVGDRVTITCRPSQGINWELAWYQQKPGKAPKLLIYDASSLEQGVPSRFSGSGSGTDFTLTISSLQPEDFATYYCQQFNSYPLTFGGGTKVEIKR
# notes: also called MB435 N56Q
# B2: XAB1 (antibody, human IgG1, kappa, V domains shown)
# VH: B1 VH
# VL: B1 VL with N30I, W31S, E32A, Q56N
# notes: human IgG1/kappa monoclonal antibody; also called parental XAB1; XAB1 IgG
# Columns and labels:
# [1] = biological target: T1, recombinant mouse IL-2 (R&D Systems …); test: ELISA, coated cytokine, Ab 10 µg/ml
# Procedure: (§1) The antibodies of the disclosure were added at 10 μg/ml (100 μl/well) for 3 h at room temperature. […] They were added at 1 or 5 μg/ml, in PBS, 0.02% NaN₃ for 3 h at RT.
# (§2) Plates were then washed 4 times with PBS/0.05% Tween 20/0.02% NaN₃. Then, an alkaline phosphatase-conjugated goat anti-human IgG antibody (Sigma Cat# A9544) was added to the wells with human antibodies at a dilution of 1/20000 (100 μl/well). An alkaline phosphatase-conjugated goat anti-mouse IgG antibody (Sigma Cat# A1047) was added to the wells with mouse antibodies at a dilution of 1/10000 (100 μl/well). An alkaline phosphatase-conjugated rabbit anti-goat IgG antibody (Sigma Cat# A7650) was added to the wells with goat antibodies at a dilution of 1/1000 (100 μl/well) and an alkaline phosphatase-conjugated rabbit anti rat-IgG antibody (Sigma Cat# A6066) was added to the wells with rat antibodies at a dilution of 1/20000 (100 μl/well).
# [2] = biological target: T2, recombinant mouse IFN-γ (R&D Systems …); test: ELISA, coated cytokine, Ab 10 µg/ml
# Procedure: as §1, §2
# [3] = biological target: T3, recombinant mouse IL-17A/F (R&D Systems …); test: ELISA, coated cytokine, Ab 10 µg/ml
# Procedure: as §1, §2
# [4] = biological target: T4, recombinant mouse IL-6 (R&D Systems …); test: ELISA, coated cytokine, Ab 10 µg/ml
# Procedure: as §1, §2
# [5] = biological target: T5, recombinant mouse IL-23 (R&D Systems …); test: ELISA, coated cytokine, Ab 10 µg/ml
# Procedure: as §1, §2
# [6] = biological target: T10, recombinant human IL-13 (Novartis) (human, UniProt P35225 35-146, limits assumed); test: ELISA, coated cytokine;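 further: antibodies incubated 3 h at room temperature on cytokine-coated plates, binding read out with alkaline phosphatase-conjugated anti-species IgG secondary antibodies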
# T10 construct: also called huIL-13
# T10 sequence (P35225 35-146 limits assumed): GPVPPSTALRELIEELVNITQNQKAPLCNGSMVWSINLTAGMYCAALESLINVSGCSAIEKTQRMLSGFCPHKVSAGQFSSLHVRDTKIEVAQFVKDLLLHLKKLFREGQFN
# Procedure: as §1, §2
# [7] = biological target: T6, recombinant human IL-4 (R&D Systems …); test: ELISA, coated cytokine;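 further: antibodies incubated 3 h at room temperature on cytokine-coated plates, binding read out with alkaline phosphatase-conjugated anti-species IgG secondary antibodies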
# Procedure: as §1, §2
# [8] = biological target: T7, recombinant human IL-8 (R&D Systems …); test: ELISA, coated cytokine;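 further: antibodies incubated 3 h at room temperature on cytokine-coated plates, binding read out with alkaline phosphatase-conjugated anti-species IgG secondary antibodies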
# Procedure: as §1, §2
# [9] = biological target: T8, recombinant human IL-20 (Novartis); test: ELISA, coated cytokine;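 further: antibodies incubated 3 h at room temperature on cytokine-coated plates, binding read out with alkaline phosphatase-conjugated anti-species IgG secondary antibodies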
# Procedure: as §1, §2
# [10] = biological target: T2, recombinant mouse IFN-γ (R&D Systems …); test: ELISA, coated cytokine
# Procedure: as §1, §2
# [11] = biological target: T9, recombinant rat TNFα (R&D Systems …); test: ELISA, coated cytokine
# Procedure: as §1, §2
# [12] = biological target: T4, recombinant mouse IL-6 (R&D Systems …); test: ELISA, coated cytokine
# Procedure: as §1, §2
Binder,O.D. [1] [O.D.],O.D. [2] [O.D.],O.D. [3] [O.D.],O.D. [4] [O.D.],O.D. [5] [O.D.],binding result [6],binding result [7],binding result [8],binding result [9],binding result [10],binding result [11],binding result [12]
B1,0.024,0.038,3.34,0.031,0.058,no binding (tested: 10 µg/ml),no binding (tested: 10 µg/ml),no binding (tested: 10 µg/ml),no binding (tested: 10 µg/ml),no binding (tested: 10 µg/ml),no binding (tested: 10 µg/ml),no binding (tested: 10 µg/ml)
B2,0.022,0.048,3.17,0.038,0.009,no binding (tested: 10 µg/ml),no binding (tested: 10 µg/ml),no binding (tested: 10 µg/ml),no binding (tested: 10 µg/ml),no binding (tested: 10 µg/ml),no binding (tested: 10 µg/ml),no binding (tested: 10 µg/ml)
